Experiments:
Type in all cases: in vivo
[1] = test system: Arabidopsis thaliana T1 plants; assay: Topramezone tolerance of transgenic Arabidopsis thaliana T1 plants (spray, bleached leaf area grade, damage score); conditions: for Classification and statistics of the grade of pesticide damage: Grade 0 / Classification and statistics of the grade of pesticide damage: Grade 1 / Classification and statistics of the grade of pesticide damage: Grade 2 / Classification and statistics of the grade of pesticide damage: Grade 3: number of plants; for Classification and statistics of the grade of pesticide damage: Grade 0 / Classification and statistics of the grade of pesticide damage: Grade 1 / Classification and statistics of the grade of pesticide damage: Grade 2 / Classification and statistics of the grade of pesticide damage: Grade 3 / Scores / Resistance evaluation: 7 DAT, Table 1; for Scores: pesticide damage score 0-100
From the text: T1 transformants were initially selected from the untransformed seeds using a glufosinate selection scheme. The Arabidopsis thaliana T1 plants (AsHPPD-02) into which the AsHPPD-02 nucleotide sequence was introduced, the Arabidopsis thaliana T1 plants (AsHPPDm-F372A-02) into which the AsHPPDm-F372A-02 nucleotide sequence was introduced, the Arabidopsis thaliana T1 plants (AsHPPDm-F383W-02) into which the AsHPPDm-F383W-02 nucleotide sequence was introduced, the Arabidopsis thaliana T1 plants (AsHPPDm-F372A-F383W-02) into which the AsHPPDm-F372A-F383W-02 nucleotide sequence was introduced, the Arabidopsis thaliana T1 plants (DBN11726N) into which the control recombinant expression vector DBN11726N was introduced, and the wild-type Arabidopsis thaliana plants (CK) (18 days after sowing) were sprayed respectively with topramezone at three concentrations (100 g ai/ha (four-fold field concentration, 4×), 200 g ai/ha (eight-fold field concentration, 8×), and 0 g ai/ha (water, 0×)), isoxaflutole at three concentrations (140 g ai/ha (two-fold field concentration, 2×), 280 g ai/ha (four-fold field concentration, 4×), and 0 g ai/ha (water, 0×)), and mesotrione at three concentrations (210 g ai/ha (two-fold field concentration, […]), 420 g ai/ha (four-fold field concentration, 4×), and 0 g ai/ha (water, 0×)), to determine the tolerance of Arabidopsis thaliana to the herbicides. The degree of damage caused by the herbicide was measured for each plant according to the proportion of bleached leaf area (the proportion of bleached leaf area=bleached leaf area/total leaf area×100%) 7 days after spraying (7 DAT): the case where there is basically no bleached phenotype is defined as grade 0, the case where the proportion of bleached leaf area is less than 50% is defined as grade 1, the case where the proportion of bleached leaf area is more than 50% is defined as grade 2, and the case where the proportion of bleached leaf area is 100% grade is defined as grade 3.
According to the method as described above in point 6 of Example 1, the aforementioned Arabidopsis thaliana T1 plants and wild-type Arabidopsis thaliana plants (CK) (18 days after sowing) were sprayed respectively with topramezone at three concentrations (25 g ai/ha (one-fold field concentration, 1×). 100 g ai/ha (four-fold field concentration, 4×), and 0 g ai/ha (water, 0×)), isoxaflutole at three concentrations (35 g ai/ha (half-fold field concentration, 0.5×). 70 g ai/ha (one-fold field concentration, 1×), and 0 g ai/ha (water, 0×)), and mesotrione at three concentrations (52.5 g ai/ha (half-fold field concentration, 0.5×), 105 g ai/ha (one-fold field concentration, 1×), and 0 g ai/ha (water, 0×)) to detect the tolerance of Arabidopsis thaliana to the herbicides.
According to the method as described above in point 6 of Example 1, the aforementioned Arabidopsis thaliana T1 plants and wild-type Arabidopsis thaliana plants (CK) (18 days after sowing) were sprayed with topramezone at three different concentrations (i.e., 100 g ai/ha (four-fold field concentration, 4×), 200 g ai/ha (eight-fold field concentration, 8×) and 0 g ai/ha (water, 0×)), isoxaflutole at three different concentrations (i.e., 140 g ai/ha (two-fold field concentration, 2×), 280 g ai/ha (four-fold field concentration, 4×) and 0 g ai/ha (water, 0×)), and mesotrione at three different concentrations (i.e., 210 g ai/ha (two-fold field concentration, 2×), 420 g ai/ha (four-fold field concentration, 4×) and 0 g ai/ha (water, 0×)) respectively to detect the herbicide tolerance of Arabidopsis thaliana. […]

[2] = test system: Arabidopsis thaliana T1 plants; assay: Isoxaflutole tolerance of transgenic Arabidopsis thaliana T1 plants (spray, bleached leaf area grade, damage score); conditions: for Classification and statistics of the grade of pesticide damage Grade 0 / Classification and statistics of the grade of pesticide damage Grade 1 / Classification and statistics of the grade of pesticide damage Grade 2 / Classification and statistics of the grade of pesticide damage Grade 3: number of plants in grade; for Classification and statistics of the grade of pesticide damage: Grade 0 / Classification and statistics of the grade of pesticide damage: Grade 1 / Classification and statistics of the grade of pesticide damage: Grade 2 / Classification and statistics of the grade of pesticide damage: Grade 3: number of plants;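 as to Scores: Weighted damage index from 0 to 100 where higher means more damage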
Procedure, shortened: (§1)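 Damage was assessed by bleaching grade (0 none; 1 <50%; 2 >50%; 3 100% of leaf area) one week after spraying. Sprays on 18-day-old T1 and wild-type plants used field-rate multiples: topramezone 25–200, isoxaflutole 35–280, mesotrione 52.5–420 g ai/ha.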

[3] = test system: Arabidopsis thaliana T1 plants; assay: Mesotrione tolerance of transgenic Arabidopsis thaliana T1 plants (spray, bleached leaf area grade, damage score); set-up: Scores: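 damage score 0-100 computed as Σ(N×S)/(T×M)×100 over grades 0-3 with higher meaning more damage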; conditions: for Classification and statistics of the grade of pesticide damage Grade 0 / Classification and statistics of the grade of pesticide damage Grade 1 / Classification and statistics of the grade of pesticide damage Grade 2 / Classification and statistics of the grade of pesticide damage Grade 3: number of plants in grade; for Classification and statistics of the grade of pesticide damage: Grade 0 / Classification and statistics of the grade of pesticide damage: Grade 1 / Classification and statistics of the grade of pesticide damage: Grade 2 / Classification and statistics of the grade of pesticide damage: Grade 3: number of plants
Procedure, shortened: as §1

[4] = isoxaflutole 140 g ai/ha (2×), 7 DAT, Table 2
[5] = isoxaflutole 280 g ai/ha (4×), 7 DAT, Table 2
[6] = mesotrione 210 g ai/ha (two-fold field concentration), 7 DAT, Table 3
[7] = mesotrione 420 g ai/ha (4×), 7 DAT, Table 3

B1: AsHPPDm-F372A-02: nucleotide sequence encoding Avena sativa HPPD with F372A; vector DBN11728 (nucleic acid)
DNA: ATGCCACCTACTCCAGCTACAGCTACTGGTGCTGCTGCTGCTGCCGTTACTCCTGAGCACGCTGCCAGGTCATTCCCCAGGGTGGTTCGCGTGAACCCCAGATCTGATAGGTTCCCAGTTCTGAGCTTCCACCATGTTGAGCTGTGGTGCGCTGATGCTGCTTCTGCTGCTGGCAGGTTCTCTTTCGCTCTTGGTGCTCCACTCGCTGCTAGATCTGATCTGTCTACAGGAAATAGCGCTCATGCCTCACTCCTGCTTCGCTCAGGTGCTTTGGCCTTCCTCTTCACCGCTCCATATGCTCCCCCACCTCAGGAGGCTGCTACTGCTGCTGCTACAGCCTCCATTCCAAGCTTCTCAGCTGATGCCGCTAGAACCTTCGCTGCTGCTCATGGACTTGCCGTGAGGTCTGTTGGTGTTCGCGTGGCTGATGCTGCTGAGGCTTTCAGAGTTTCCGTTGCCGGCGGAGCTAGGCCAGCTTTCGCTCCTGCTGATTTGGGACATGGTTTCGGCCTGGCTGAGGTTGAGCTTTACGGTGACGTGGTTCTCCGCTTCGTGTCTTACCCAGATGAGACTGACCTGCCTTTCCTTCCCGGCTTCGAGAGAGTTTCCTCTCCTGGTGCCGTGGATTACGGCCTGACAAGGTTCGACCACGTGGTTGGAAACGTTCCCGAGATGGCTCCAGTGATCGATTACATGAAGGGCTTCCTTGGATTCCATGAGTTCGCCGAGTTCACTGCTGAGGACGTGGGAACCACTGAGTCCGGTTTGAACTCTGTGGTTCTCGCCAACAATTCTGAGGCTGTTTTGCTCCCTCTGAATGAGCCTGTGCATGGAACCAAGAGGAGAAGCCAGATTCAAACTTACCTGGAGTACCACGGTGGCCCTGGAGTTCAGCATATCGCCCTTGCTTCTAATGATGTGTTGCGCACACTCAGAGAGATGCGCGCCAGAACCCCCATGGGAGGTTTCGAGTTCATGGCCCCACCACAGGCTAAGTACTACGAGGGCGTTAGAAGGATTGCTGGAGACGTGTTGAGCGAGGAGCAGATCAAGGAGTGCCAAGAGCTGGGTGTTCTTGTGGATAGGGATGACCAGGGCGTTCTGCTTCAAATTGCCACTAAGCCAGTGGGCGACCGCCCTACATTCTTCCTTGAGATGATTCAAAGAATCGGCTGCATGGAGAAGGATGAGGTTGGACAGGAGTACCAAAAGGGCGGATGCGGTGGCTTCGGAAAGGGTAACTTCAGCGAGTTGTTCAAGTCAATCGAGGACTACGAGAAGAGCCTCGAGGTGAAGCAGTCAGTGGTTGCCCAAAAGTCCTGA
modifications: AsHPPDm-F372A-02 Nucleotide Sequence
notes: vector DBN11728
Classification and statistics of the grade of pesticide damage: Grade 0 ([1]; topramezone 100 g ai/ha (4×)): 16 | Classification and statistics of the grade of pesticide damage: Grade 1 ([1]; topramezone 100 g ai/ha (4×)): 0 | Classification and statistics of the grade of pesticide damage: Grade 2 ([1]; topramezone 100 g ai/ha (4×)): 0 | Classification and statistics of the grade of pesticide damage: Grade 3 ([1]; topramezone 100 g ai/ha (4×)): 0 | Classification and statistics of the grade of pesticide damage: Grade 0 ([1]; topramezone 200 g ai/ha (8×)): 16 | Classification and statistics of the grade of pesticide damage: Grade 1 ([1]; topramezone 200 g ai/ha (8×)): 0 | Classification and statistics of the grade of pesticide damage: Grade 2 ([1]; topramezone 200 g ai/ha (8×)): 0 | Classification and statistics of the grade of pesticide damage: Grade 3 ([1]; topramezone 200 g ai/ha (8×)): 0 | Scores ([1]; topramezone 100 g ai/ha (4×)): 0 | Scores ([1]; topramezone 200 g ai/ha (8×)): 0 | Resistance evaluation ([1]; topramezone 100 g ai/ha (4×)): highly resistant (highly resistant plants (scores 0-15)) | Resistance evaluation ([1]; topramezone 200 g ai/ha (8×)): highly resistant (highly resistant plants (scores 0-15)) | tolerance to topramezone (resistance class) ([1]; topramezone at four-fold or eight-fold field concentration): highly-resistant | tolerance to isoxaflutole (in words) ([2]; in vivo): different degrees of tolerance | Resistance evaluation ([2]; isoxaflutole 140 g ai/ha): Moderately | Scores ([2]; isoxaflutole 140 g ai/ha): 33 | Resistance evaluation [2, 4]: moderately | Classification and statistics of the grade of pesticide damage Grade 0 ([2]; isoxaflutole 140 g ai/ha): 5 | Classification and statistics of the grade of pesticide damage Grade 1 ([2]; isoxaflutole 140 g ai/ha): 6 | Classification and statistics of the grade of pesticide damage Grade 2 ([2]; isoxaflutole 140 g ai/ha): 5 | Classification and statistics of the grade of pesticide damage Grade 3 ([2]; isoxaflutole 140 g ai/ha): 0 | Resistance evaluation ([2]; isoxaflutole 280 g ai/ha): Poorly | Scores ([2]; isoxaflutole 280 g ai/ha): 67 | Resistance evaluation [2, 5]: poorly resistant (poorly resistant plants (scores 34-67)) | Classification and statistics of the grade of pesticide damage Grade 0 ([2]; isoxaflutole 280 g ai/ha): 0 | Classification and statistics of the grade of pesticide damage Grade 1 ([2]; isoxaflutole 280 g ai/ha): 0 | Classification and statistics of the grade of pesticide damage Grade 2 ([2]; isoxaflutole 280 g ai/ha): 16 | Classification and statistics of the grade of pesticide damage Grade 3 ([2]; isoxaflutole 280 g ai/ha): 0 | tolerance to isoxaflutole (resistance class) ([2]; isoxaflutole at four-fold field concentration): poorly-resistant | tolerance to isoxaflutole (resistance class) ([2]; isoxaflutole at two-fold field concentration): moderately-resistant | Classification and statistics of the grade of pesticide damage: Grade 0 [2, 4]: 5 | Classification and statistics of the grade of pesticide damage: Grade 1 [2, 4]: 6 | Classification and statistics of the grade of pesticide damage: Grade 2 [2, 4]: 5 | Classification and statistics of the grade of pesticide damage: Grade 3 [2, 4]: 0 | Classification and statistics of the grade of pesticide damage: Grade 0 [2, 5]: 0 | Classification and statistics of the grade of pesticide damage: Grade 1 [2, 5]: 0 | Classification and statistics of the grade of pesticide damage: Grade 2 [2, 5]: 16 | Classification and statistics of the grade of pesticide damage: Grade 3 [2, 5]: 0 | Scores ([2]; pesticide damage score 0-100, isoxaflutole 140 g ai/ha (2×), 7 DAT, Table 2): 33 | Scores ([2]; pesticide damage score 0-100, isoxaflutole 280 g ai/ha (4×), 7 DAT, Table 2): 67 | tolerance to mesotrione (in words) ([3]; in vivo): different degrees of tolerance | Resistance evaluation ([3]; mesotrione 210 g ai/ha): Moderately | Scores ([3]; mesotrione 210 g ai/ha): 31 | Resistance evaluation [3, 6]: moderately | Classification and statistics of the grade of pesticide damage Grade 0 ([3]; mesotrione 210 g ai/ha): 5 | Classification and statistics of the grade of pesticide damage Grade 1 ([3]; mesotrione 210 g ai/ha): 7 | Classification and statistics of the grade of pesticide damage Grade 2 ([3]; mesotrione 210 g ai/ha): 4 | Classification and statistics of the grade of pesticide damage Grade 3 ([3]; mesotrione 210 g ai/ha): 0 | Resistance evaluation ([3]; mesotrione 420 g ai/ha): Poorly resistant | Scores ([3]; mesotrione 420 g ai/ha): 50 | Resistance evaluation [3, 7]: poorly resistant (poorly resistant plants (scores 34-67)) | Classification and statistics of the grade of pesticide damage Grade 0 ([3]; mesotrione 420 g ai/ha): 0 | Classification and statistics of the grade of pesticide damage Grade 1 ([3]; mesotrione 420 g ai/ha): 8 | Classification and statistics of the grade of pesticide damage Grade 2 ([3]; mesotrione 420 g ai/ha): 8 | Classification and statistics of the grade of pesticide damage Grade 3 ([3]; mesotrione 420 g ai/ha): 0 | tolerance to mesotrione (resistance class) ([3]; mesotrione at four-fold field concentration): poorly-resistant | tolerance to mesotrione (resistance class) ([3]; mesotrione at two-fold field concentration): moderately-resistant | Classification and statistics of the grade of pesticide damage: Grade 0 [3, 6]: 5 | Classification and statistics of the grade of pesticide damage: Grade 1 [3, 6]: 7 | Classification and statistics of the grade of pesticide damage: Grade 2 [3, 6]: 4 | Classification and statistics of the grade of pesticide damage: Grade 3 [3, 6]: 0 | Classification and statistics of the grade of pesticide damage: Grade 0 [3, 7]: 0 | Classification and statistics of the grade of pesticide damage: Grade 1 [3, 7]: 8 | Classification and statistics of the grade of pesticide damage: Grade 2 [3, 7]: 8 | Classification and statistics of the grade of pesticide damage: Grade 3 [3, 7]: 0 | Scores ([3]; pesticide damage score 0-100, mesotrione 210 g ai/ha (two-fold field concentration), 7 DAT, Table 3): 31 | Scores ([3]; pesticide damage score 0-100, mesotrione 420 g ai/ha (4×), 7 DAT, Table 3): 50
